The source of these data is patent US20240277770A1 (Genentech, published 2024).

Assay [1] deals with T1, HLA-B*07:02 (human).
T1 construct: whole, on cells; MHC class I on a monoallelic cell line
Nature of the assay: HLA-I IP (W6/32) and targeted MS of monoallelic HMy2.C1R cells expressing the polyantigen cassette.

Assay [2] addresses T2, HLA-C*05:01 (human).
T2 construct: whole, on cells; MHC class I on a monoallelic cell line
The description is as above.

Assay [3] concerns the target T3, HLA-B*08:01 (human).
T3 construct: whole, on cells; MHC class I on a monoallelic cell line
Described as above.

In assay [4] the target is T4, HLA-A*01:01 (human).
T4 construct: whole, on cells; MHC class I on a monoallelic cell line
Described as above.

For assay [5], the target named is T5, HLA-A*11:01 (human).
T5 construct: whole, on cells; MHC class I on a monoallelic cell line
Briefly: HLA-I IP and targeted MS with hipMHC standards, A*11:01 monoallelic C1R cells (FIG. 12B).

Assay [6] has as its target T6, HLA-A*03:01 (human).
T6 construct: whole, on cells; MHC class I on a monoallelic cell line
Briefly: HLA-I IP (W6/32) and targeted MS of monoallelic HMy2.C1R cells expressing the polyantigen cassette.

In assay [7] the target is T5, HLA-A*11:01. Described as above.
Assay [8] deals with T7, HLA-C*07:01 (human).
T7 construct: whole, on cells; MHC class I on a monoallelic cell line
Described as above.

The target in assay [9] is T8, HLA-B*35:01 (human).
T8 construct: whole, on cells; MHC class I on a monoallelic cell line
The assay is described as above.

In assay [10] the target is T9, HLA-C*06:02 (human).
T9 construct: whole, on cells; MHC class I on a monoallelic cell line
Described as above.

As to RPIPIKYKAM, the binding result in [1] is listed as “binds”.

In the case of KPIIIGCH, the binding result in assay [1] was “binds”. Regarding GRNSFEVCV, the binding result in assay [2] is reported as “binds”. Take CPHRPILQA: the binding result in [1] is recorded as “binds”. For the molecule FMKQMNDAL, the binding result in [3] was “binds”. For the molecule DTAGREEY, the binding result in [4] is recorded as “binds”.

Consider MIKRSKRNSL, for which, in [3], the binding result was “binds”.

As for IGDFGLATM, the binding result in [2] was “binds”. GARGVGKSAL: in assay [1], the binding result is “binds”.

Turning to SKRNSLAL, the binding result in assay [3] is “binds”. FKKIKVLAS: in assay [3], the binding result is on record as “binds”. Regarding VVVGAGGVGK (also called KRAS G12 wild type 10-mer), in assay [5], the binding result is listed as “binds”. As for VVVGARGVGK, the binding result in assay [6] and in assay [7] was “binds” in each case. On to VVVGAGCVGK, for which the binding result in [7] is “binds”. For VVVGAVGVGK, the binding result in [6] and in assay [7] was “binds” in each case. For the molecule VVVGASGVGK, the binding result in assay [6] and in assay [7] was “binds” throughout. Consider CNTTARAFAVV, for which, in assay [2], the binding result is given as “binds”.

For the molecule EKSRWSGSHQF, the binding result in assay [8] is “binds”. In the case of SCMGGMNQR, the binding result in assay [7] is recorded as “binds”. With GARGVGKSA, the binding result in assay [1] is recorded as “binds”.

Turning to ILDTAGKEEY, the binding result in assay [4] is given as “binds”.

ILDTAGREEY: the binding result in assay [4] is reported as “binds”. In the case of AGREEYSAM, the binding result in [3] is reported as “binds”. For LDTAGKEEY, the binding result in assay [4] is listed as “binds”. Consider VKPIIIGHHAY, for which, in assay [9], the binding result is reported as “binds”. In the case of IIIGGHAY, the binding result in assay [9] is “binds”. On to IIIGHHAY, for which the binding result in assay [9] was “binds”. As for GADGVGKSAL, in [2], the binding result is on record as “binds”. For VVVGAAGVGK, the binding result in assay [6] and in assay [7] was “binds” each time. Regarding VVVGADGVGK, the binding result in assay [6] and in assay [7] was “binds” each time.

In the case of VVGAGGVGK (also called KRAS G12 wild type 9-mer), the binding result in assay [5] was “binds”. Turning to VVGADGVGK, the binding result in [7] is reported as “binds”. As to VVGAAGVGK, the binding result in assay [7] is listed as “binds”. Regarding VVGASGVGK, the binding result in assay [6] and in [7] was “binds” in each case. For VVGACGVGK, the binding result in assay [7] was “binds”. On the same count and under the same terms, the value for VVGAGCVGK was “binds”. As for VVGAGDVGK, the binding result in assay [6] and in assay [7] was “binds” throughout. Take GRNSFEVHV: in assay [10], the binding result was “binds”.

As to LASGAFGTVYK, in assay [7], the binding result is “binds”. Regarding DGVGKSAL, in [3], the binding result is on record as “binds”.

Consider YTDVSNMSHLA, for which the binding result in assay [4] was “binds”.

In the case of MPFGSLLDY, the binding result in assay [1] and in assay [9] was “binds” throughout. For ASGAFGTVY, in assay [7], the binding result was “binds”. On to KMRRKMSP, for which the binding result in [3] was “binds”.

For WVKPIIIGC, the binding result in [3] is listed as “binds”.

Consider SPNGTIQNIL, for which the binding result in assay [1] is listed as “binds”. Regarding STDVGFCTL, the binding result in [2] is recorded as “binds”. Consider FGRAKLLGA, for which, in [3], the binding result is “binds”. Turning to PIIIGHHAY, the binding result in assay [9] is given as “binds”. As to STRDPLSEITK, the binding result in [7] was “binds”. On to ASGAFGTVYK, for which the binding result in assay [6] and in assay [7] was “binds” throughout. On to FGLARYIM, for which the binding result in assay [3] is “binds”.

For YTDVSNMSH, the binding result in assay [4] is “binds”. As to ERCPHRPIL, in assay [3], the binding result is listed as “binds”. With RSKRNSLAL, the binding result in [1] is given as “binds”.

Take KITDFGRAK: in assay [6], the binding result is “binds”.
